Results as given in paper PMC7457226 (Developmental cell, 2019).

Experiments:
Rab11 (Homo sapiens) = Rab11 (Homo sapiens) (UniProt P62491); settings: cited from earlier work
WDR44 334-435 (human) = WDR44 334-435 (human) (UniProt Q5JSH3); test: ITC
SEC = molecular target: the molecule itself; test: SEC
[1] = molecular target: Rab11Q70L 6-186-WDR44 334-435 complex (human) (UniProt P62491); test: ITC

Sequence of Rab11 (Homo sapiens) (P62491 2-213): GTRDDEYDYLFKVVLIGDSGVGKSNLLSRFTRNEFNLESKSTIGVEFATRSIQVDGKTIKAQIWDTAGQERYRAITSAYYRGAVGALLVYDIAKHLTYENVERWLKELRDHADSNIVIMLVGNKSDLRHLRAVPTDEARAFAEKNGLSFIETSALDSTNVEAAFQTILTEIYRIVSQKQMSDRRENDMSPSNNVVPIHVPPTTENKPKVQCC
Sequence of WDR44 334-435 (human) (Q5JSH3 334-435): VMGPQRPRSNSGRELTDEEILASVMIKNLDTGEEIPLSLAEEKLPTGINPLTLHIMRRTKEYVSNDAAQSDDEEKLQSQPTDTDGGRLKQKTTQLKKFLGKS
Sequence of Rabin8 (Q96QF0 whole entry): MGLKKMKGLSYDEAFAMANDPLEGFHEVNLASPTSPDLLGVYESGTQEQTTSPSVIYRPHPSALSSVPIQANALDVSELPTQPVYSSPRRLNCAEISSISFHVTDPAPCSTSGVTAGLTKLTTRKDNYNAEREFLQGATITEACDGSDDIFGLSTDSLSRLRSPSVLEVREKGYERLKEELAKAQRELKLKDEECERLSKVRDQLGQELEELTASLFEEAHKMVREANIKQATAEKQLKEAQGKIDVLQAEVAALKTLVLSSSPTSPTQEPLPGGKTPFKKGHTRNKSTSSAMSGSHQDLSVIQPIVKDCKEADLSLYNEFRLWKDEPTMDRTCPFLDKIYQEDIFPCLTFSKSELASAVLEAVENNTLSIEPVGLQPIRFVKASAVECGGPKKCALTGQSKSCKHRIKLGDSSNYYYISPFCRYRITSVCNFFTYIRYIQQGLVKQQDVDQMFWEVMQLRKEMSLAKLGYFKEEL

Molecule | binding result (SEC) | also measured
Rabin8 (from UniProt Q96QF0) |  | Kd (Rab11 (Homo sapiens)): 40 µM
Rab11Q70L 6-186 (calorimetry) (from UniProt P62491 6-186) (domain or fragment) |  | Kd (WDR44 334-435 (human)): 0.54 µM
Rabin8 144-C (domain or fragment, human, UniProt Q96QF0-2 144-460, looked up) RLRSPSVLEVREKGYERLKEELAKAQRELKLKDEECERLSKVRDQLGQELEELTASLFEEAHKMVREANIKQATAEKQLKEAQGKIDVLQAEVAALKTLVLSSSPTSPTQEPLPGGKTPFKKGHTRNKSTSSAMSGSHQDLSVIQPIVKDCKEADLSLYNEFRLWKDEPTMDRTCPFLDKIYQEDIFPCLTFSKSELASAVLEAVENNTLSIEPVGLQPIRFVKASAVECGGPKKCALTGQSKSCKHRIKLGDSSNYYYISPFCRYRITSVCNFFTYIRYIQQGLVKQQDVDQMFWEVMQLRKEMSLAKLGYFKEEL | binds | 
Rabin8 144-C S147D/S149D (domain or fragment, human, UniProt Q96QF0-2 144-460, looked up) RLRDPDVLEVREKGYERLKEELAKAQRELKLKDEECERLSKVRDQLGQELEELTASLFEEAHKMVREANIKQATAEKQLKEAQGKIDVLQAEVAALKTLVLSSSPTSPTQEPLPGGKTPFKKGHTRNKSTSSAMSGSHQDLSVIQPIVKDCKEADLSLYNEFRLWKDEPTMDRTCPFLDKIYQEDIFPCLTFSKSELASAVLEAVENNTLSIEPVGLQPIRFVKASAVECGGPKKCALTGQSKSCKHRIKLGDSSNYYYISPFCRYRITSVCNFFTYIRYIQQGLVKQQDVDQMFWEVMQLRKEMSLAKLGYFKEEL | binds | 
Rabin8 144-C S147A/S149A (domain or fragment, human, UniProt Q96QF0-2 144-460, looked up) RLRAPAVLEVREKGYERLKEELAKAQRELKLKDEECERLSKVRDQLGQELEELTASLFEEAHKMVREANIKQATAEKQLKEAQGKIDVLQAEVAALKTLVLSSSPTSPTQEPLPGGKTPFKKGHTRNKSTSSAMSGSHQDLSVIQPIVKDCKEADLSLYNEFRLWKDEPTMDRTCPFLDKIYQEDIFPCLTFSKSELASAVLEAVENNTLSIEPVGLQPIRFVKASAVECGGPKKCALTGQSKSCKHRIKLGDSSNYYYISPFCRYRITSVCNFFTYIRYIQQGLVKQQDVDQMFWEVMQLRKEMSLAKLGYFKEEL | binds | 
Rabin8C (residues 270-460) (domain or fragment) NKSTSSAMSGSHQDLSVIQPIVKDCKEADLSLYNEFRLWKDEPTMDRTCPFLDKIYQEDIFPCLTFSKSELASAVLEAVENNTLSIEPVGLQPIRFVKASAVECGGPKKCALTGQSKSCKHRIKLGDSSNYYYISPFCRYRITSVCNFFTYIRYIQQGLVKQQDVDQMFWEVMQLRKEMSLAKLGYFKEEL |  | Kd [1]: 37.2 µM
